Measurements reported in the supplement of paper PMC5998384.

What was measured:
HeLa Kyoto [1] = assay: solubility in G1/S (NP-40 vs SDS abundance) (log2 ratio); higher = more soluble; conditions: cell cycle stage: G1/S
HeLa Kyoto [2] = assay: melting temperature (median over replicates), in situ; higher = more thermally stable
HeLa Kyoto [3] = assay: solubility change mitosis vs G1/S (difference of NP-40 vs SDS log2 ratios) (log2 ratio difference); higher = more soluble in mitosis
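For melting temperature (median over replicates), in situ in this document: HeLa Kyoto cells synchronized by double thymidine or nocodazole block, proteins quantified by TMT10plex mass spectrometry, three independent biological replicates.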
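For solubility change mitosis vs G1/S (difference of NP-40 vs SDS log2 ratios) in this document: synchronized HeLa Kyoto cells (double thymidine block for G1/S, nocodazole release for mitosis), protein amounts in NP-40 versus SDS lysates quantified by mass spectrometry, three biological replicates.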
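For solubility in G1/S (NP-40 vs SDS abundance) in this document: HeLa Kyoto cells arrested at G1/S by double thymidine block, proteins quantified by TMT10plex mass spectrometry in mild NP-40 versus SDS extracts, three biological replicates.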

Substance	solubility in G1/S (log2) (HeLa Kyoto [1])	melting temperature (HeLa Kyoto [2]; cell cycle stage: G1/S)	melting temperature (HeLa Kyoto [2]; cell cycle stage: mitosis)	solubility change mitosis (log2) (HeLa Kyoto [3])
MACLSPSQLQKFQQDGFLVLEGFLSAEECVAMQQRIGEIVAEMDVPLHCRTEFSTQEEEQLRAQGSTDYFLSSGDKIRFFFEKGVFDEKGNFLVPPEKSINKIGHALHAHDPVFKSITHSFKVQTLARSLGLQMPVVVQSMYIFKQPHFGGEVSPHQDASFLYTEPLGRVLGVWIAVEDATLENGCLWFIPGSHTSGVSRRMVRAPVGSAPGTSFLGSEPARDNSLFVPTPVQRGALVLIHGEVVHKSKQNLSDRSRQAYTFHLMEASGTTWSPENWLQPTAELPFPQLYT [PHYHD1]	0.198	50.2 °C	51.2 °C	-0.137
KIF13B	-0.0369	50.2 °C	50.3 °C	-0.193
MPVKKKRKSPGVAAAVAEDGGLKKCKISSYCRSQPPARLISGEEHFSSKKCLAWFYEYAGPDEVVGPEGMEKFCEDIGVEPENIIMLVLAWKLEAESMGFFTKEEWLKGMTSLQCDCTEKLQNKFDFLRSQLNDISSFKNIYRYAFDFARDKDQRSLDIDTAKSMLALLLGRTWPLFSVFYQYLEQSKYRVMNKDQWYNVLEFSRTVHADLSNYDEDGAWPVLLDEFVEWQKVRQTS [DCUN1D5]	0.214		47.5 °C	-0.0762
MAGAGGGGCPAGGNDFQWCFSQVKGAIDEDVAEADIISTVEFNYSGDLLATGDKGGRVVIFQREQENKSRPHSRGEYNVYSTFQSHEPEFDYLKSLEIEEKINKIRWLPQQNAAHFLLSTNDKTIKLWKISERDKRAEGYNLKDEDGRLRDPFRITALRVPILKPMDLMVEASPRRIFANAHTYHINSISVNSDHETYLSADDLRINLWHLEITDRSFNIVDIKPANMEELTEVITAAEFHPHQCNVFVYSSSKGTIRLCDMRSSALCDRHSKFFEEPEDPSSRSFFSEIISSISDVKFSHSGRYMMTRDYLSVKVWDLNMESRPVETHQVHEYLRSKLCSLYENDCIFDKFECCWNGSDSAIMTGSYNNFFRMFDRDTRRDVTLEASRESSKPRASLKPRKVCTGGKRRKDEISVDSLDFNKKILHTAWHPVDNVIAVAATNNLYIFQDKIN [PPP2R2D]	-0.162	53.1 °C		-0.168
ASAP2	0.122	50.7 °C	51.4 °C	-0.37
MISRHLQNNLMSVDPASSQAMELSDVTLIEGVGNEVMVVAGVVVLILALVLAWLSTYVADSGSNQLLGAIVSAGDTSVLHLGHVDHLVAGQGNPEPTELPHPSEGNDEKAEEAGEGRGDSTGEAGAGGGVEPSLEHLLDIQGLPKRQAGAGSSSPEAPLRSEDSTCLPPSPGLITVRLKFLNDTEELAVARPEDTVGALKSKYFPGQESQMKLIYQGRLLQDPARTLRSLNITDNCVIHCHRSPPGSAVPGPSASLAPSATEPPSLGVNVGSLMVPVFVVLLGVVWYFRINYRQFFTAPATVSLVGVTVFFSFLVFGMYGR [TMUB2]	0.229	55 °C	54 °C	-0.108
MAGIPGLLFLLFFLLCAVGQVSPYSAPWKPTWPAYRLPVVLPQSTLNLAKPDFGAEAKLEVSSSCGPQCHKGTPLPTYEEAKQYLSYETLYANGSRTETQVGIYILSSSGDGAQHRDSGSSGKSRRKRQIYGYDSRFSIFGKDFLLNYPFSTSVKLSTGCTGTLVAEKHVLTAAHCIHDGKTYVKGTQKLRVGFLKPKFKDGGRGANDSTSAMPEQMKFQWIRVKRTHVPKGWIKGNANDIGMDYDYALLELKKPHKRKFMKIGVSPPAKQLPGGRIHFSGYDNDRPGNLVYRFCDVKDETYDLLYQQCDAQPGASGSGVYVRMWKRQQQKWERKIIGIFSGHQWVDMNGSPQDFNVAVRITPLKYAQICYWIKGNYLDCREG [PRSS23]	-0.403	53.2 °C	53.6 °C	0.203
MATQAHSLSYAGCNFLRQRLVLSTLSGRPVKIRKIRARDDNPGLRDFEASFIRLLDKITNGSRIEINQTGTTLYYQPGLLYGGSVEHDCSVLRGIGYYLESLLCLAPFMKHPLKIVLRGVTNDQVDPSVDVLKATALPLLKQFGIDGESFELKIVRRGMPPGGGGEVVFSCPVRKVLKPIQLTDPGKIKRIRGMAYSVRVSPQMANRIVDSARSILNKFIPDIYIYTDHMKGVNSGKSPGFGLSLVAETTSGTFLSAELASNPQGQGAAVLPEDLGRNCARLLLEEIYRGGCVDSTNQSLALLLMTLGQQDVSKVLLGPLSPYTIEFLRHLKSFFQIMFKIETKPCGEELKGGDKVLMTCVGIGFSNLSKTLK [RCL1]	-1.92	52.4 °C	52.3 °C	0.888
MAAFRDIEEVSQGLLSLLGANRAEAQQRRLLGRHEQVVERLLETQDGAEKQLREILTMEKEVAQSLLNAKEQVHQGGVELQQLEAGLQEAGEEDTRLKASLLQLTRELEELKEIEADLERQEKEVDEDTTVTIPSAVYVAQLYHQVSKIEWDYECEPGMVKGIHHGPSVAQPIHLDSTQLSRKFISDYLWSLVDTEW [SPC24]	-0.0462	49.2 °C	49.4 °C	0.363
